# Measurements: paper PMC11960969, “Mdga2 deficiency leads to an aberrant activation of BDNF/TrkB signaling that underlies autism-relevant synaptic and behavioral changes in mice” (PLOS Biology, 2025)
# B1: MDGA2-ΔMAM: truncated form of MDGA2 lacking its MAM domain (protein)
# chain: PPTVRIVHSGLACNIEEERYSERVYTIREGETLELTCLVTGHPRPQIRWTKTAGSASDRFQDSSVFNETLRITNIQRHQGGRYYCKAENGLGSPAIKSIRVDVYYLDDPVVTVHQSIGEAKEQFYYERTVFLRCVANSNPPVRYSWRRGQEVLLQGSDKGVEIYEPFFTQGETKILKLKNLRPQDYANYSCIASVRNVCNIPDKMVSFRLSNKTASPSIKLLVDDPIVVNPGEAITLVCVTTGGEPAPSLTWVRSFGTLPEKTVLNGGTLTIPAITSDDAGTYSCIANNNVGNPAKKSTNIIVRALKKGRFWITPDPYHKDDNIQIGREVKISCQVEAVPSEELTFSWFKNGRPLRSSERMVITQTDPDVSPGTTNLDIIDLKFTDFGTYTCVASLKGGGISDISIDVNISSSTVPPNLTVPQEKSPLVTREGDTIELQCQVTGKPKPIILWSRADKEVAMPDGSMQMESYDGTLRIVNVSREMSGMYRCQTSQYNGFNVKPREALVQLIVQYPPAVEPAFLEIRQGQDRSVTMSCRVLRAYPIRVLTYEWRLGNKLLRTGQFDSQEYTEYAVKSLSNENYGVYNCSIINEAGAGRCSFLVTGKAYAPEFYYDTYNPVWQNRHRVYSYSLQWTQMNPDAVDRIVAYRLGIRQAGQQRWWEQEIKINGNIQKGELITYNLTELIKPEAYEVRLTPLTKFGEGDSTIRVIKYSAPVNPHLREQDLATKNSVD
# modifications: left off: GFP, end not stated, kept
# notes: truncated form of MDGA2 lacking its MAM domain
# Test system: cell membrane localization in HeLa cells and mouse primary neurons
# Assay: Immunostaining of membrane localization of MDGA2, ΔMAM or V930I in transfected cells
# Type: cell-based
# Conditions: HeLa cells transfected 24 h, S3E Fig
# Text: Fig 7 The autism spectrum disorder (ASD)-associated MDGA2 V930I mutation impairs the MDGA2-TrkB interaction and MDGA2’s inhibitory effect on the tyrosine kinase B (TrkB) signaling. (A) Schematic depiction of the WT human MDGA2 and its V930I mutation constructs that are tagged with GFP. (B, C) HeLa cells (B) and mouse primary neurons (C) transfected with MDGA2 (green) or V930I (green) were immunostained with an antibody against the plasma membrane protein ATP1A1 (red) and then observed by confocal microscopy. Scale bars = 10 μm. (D) Cell surface expression of WT MDGA2 or V930I in transfected HeLa cells was determined by surface biotinylation assays. Biotinylated (cell surface) protein levels were quantified by densitometry and normalized to total protein levels for comparison (WT MDGA2 levels were set to one arbitrary unit). n = 4 experimental replicates. (E) Mouse primary neurons were transfected with MDGA2, V930I, or ΔMAM. […] Immunoprecipitated protein levels were quantified by densitometry, normalized to respective inputs, and compared to those transfected with MDGA2 (set to one arbitrary units). n = 4 experimental replicates. […] Levels of phosphorylated proteins were quantified by densitometry, normalized to respective total protein levels and compared to controls (set to one arbitrary units). n = 6 experimental replicates. […]
molecule,measurement,value
B1,cell membrane localization,no effect on its cell membrane localization
